The source of these data is PMC10385375, “In Situ Monitoring of Aptamer–Protein Binding on a ZnO Surface Using Spectroscopic Ellipsometry”.

The data set has as its target SARS-CoV-2 spike protein (SARS-CoV-2, UniProt P0DTC2). The experiment in a line: spectroscopic ellipsometry, immobilised aptamer; PBS (137 mM NaCl, 2.7 mM KCl, 10 mM phosphate, pH 7.4); […]. The note with it: protein: commercial; chain copies: 3.

B1: spike aptamer (ssDNA)
DNA: CAGCACCGACCTTGTGCTTTGGGAGTGCTGGTCCAAGGGCGTTAATGGACA
modifications: 5' amine
Consider B1, for which the binding result is on record as “binds”.
